This is an account of results in IntAct's records for PubMed 19182799.

The labels stand for the following.
B1: Mitochondrial intermembrane space import and assembly protein 40 (Saccharomyces cerevisiae), P36046 (parent)
chain: MLRNLVVRNACRNRPSIQVARGLCRHQTRRLMASSPQFGRNSNQEKTAGFIMGILSMAGALYFIAPNRKPLFASRKVESDKTAEEELSSGGEQSPENEDDNNSKSDENGDDNDSKNDETEAGPQLGGDKIGASKVAEDGELVVLAEEDNKSSEDKDTDESKVSTKDDEQSNEDNATANNQKDENISSENSEENTSDKTLDNNAGSSEKKDPEHSDDEKSQQGQSDDKTTTEDNNGEEESSKKTVSDSENSAKQSESSDEEKEELRKQEEKQMGPTEEEVQHEGAYNPDTGEINWDCPCLGGMAHGPCGEEFKSAFSCFVYSEAEPKGIDCVEKFQHMQDCFRKYPEHYAEQLKETSDDEEPQDKVKVNTIESAPNVSSAKENAAKKAEQSDVKKEPLNEESKP
partner: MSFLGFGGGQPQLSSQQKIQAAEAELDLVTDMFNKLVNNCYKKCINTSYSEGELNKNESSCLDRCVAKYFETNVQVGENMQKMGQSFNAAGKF
B2: Mitochondrial intermembrane space import and assembly protein 40 (Saccharomyces cerevisiae), P36046 (parent)
chain: B1 chain
partner: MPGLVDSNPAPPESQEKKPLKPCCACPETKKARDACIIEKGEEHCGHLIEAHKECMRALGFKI

Variants of B1 are the subject of the first assay. The conditions noted are these: with tim10_yeast TIM10, P87108.
For MLRNLVVRNACRNRPSIQVARGLCRHQTRRLMASSPQFGRNSNQEKTAGFIMGILSMAGALYFIAPNRKPLFASRKVESDKTAEEELSSGGEQSPENEDDNNSKSDENGDDNDSKNDETEAGPQLGGDKIGASKVAEDGELVVLAEEDNKSSEDKDTDESKVSTKDDEQSNEDNATANNQKDENISSENSEENTSDKTLDNNAGSSEKKDPEHSDDEKSQQGQSDDKTTTEDNNGEEESSKKTVSDSENSAKQSESSDEEKEELRKQEEKQMGPTEEEVQHEGAYNPDTGEINWDSPSLGGMAHGPCGEEFKSAFSCFVYSEAEPKGIDCVEKFQHMQDCFRKYPEHYAEQLKETSDDEEPQDKVKVNTIESAPNVSSAKENAAKKAEQSDVKKEPLNEESKP [C296S;C298S], the “effect of a mutation on the interaction” value was “disrupting interaction”.

In the case of MLRNLVVRNACRNRPSIQVARGLCRHQTRRLMASSPQFGRNSNQEKTAGFIMGILSMAGALYFIAPNRKPLFASRKVESDKTAEEELSSGGEQSPENEDDNNSKSDENGDDNDSKNDETEAGPQLGGDKIGASKVAEDGELVVLAEEDNKSSEDKDTDESKVSTKDDEQSNEDNATANNQKDENISSENSEENTSDKTLDNNAGSSEKKDPEHSDDEKSQQGQSDDKTTTEDNNGEEESSKKTVSDSENSAKQSESSDEEKEELRKQEEKQMGPTEEEVQHEGAYNPDTGEINWDCPSLGGMAHGPCGEEFKSAFSCFVYSEAEPKGIDCVEKFQHMQDCFRKYPEHYAEQLKETSDDEEPQDKVKVNTIESAPNVSSAKENAAKKAEQSDVKKEPLNEESKP [C298S], the “effect of a mutation on the interaction” value was “decreasing interaction”.

In a further assay the parent is B2. The note with it: with cox17_human COX17, Q14061.
Regarding MLRNLVVRNACRNRPSIQVARGLCRHQTRRLMASSPQFGRNSNQEKTAGFIMGILSMAGALYFIAPNRKPLFASRKVESDKTAEEELSSGGEQSPENEDDNNSKSDENGDDNDSKNDETEAGPQLGGDKIGASKVAEDGELVVLAEEDNKSSEDKDTDESKVSTKDDEQSNEDNATANNQKDENISSENSEENTSDKTLDNNAGSSEKKDPEHSDDEKSQQGQSDDKTTTEDNNGEEESSKKTVSDSENSAKQSESSDEEKEELRKQEEKQMGPTEEEVQHEGAYNPDTGEINWDSPSLGGMAHGPCGEEFKSAFSCFVYSEAEPKGIDCVEKFQHMQDCFRKYPEHYAEQLKETSDDEEPQDKVKVNTIESAPNVSSAKENAAKKAEQSDVKKEPLNEESKP [C296S;C298S], the “effect of a mutation on the interaction” value was “disrupting interaction”. As to MLRNLVVRNACRNRPSIQVARGLCRHQTRRLMASSPQFGRNSNQEKTAGFIMGILSMAGALYFIAPNRKPLFASRKVESDKTAEEELSSGGEQSPENEDDNNSKSDENGDDNDSKNDETEAGPQLGGDKIGASKVAEDGELVVLAEEDNKSSEDKDTDESKVSTKDDEQSNEDNATANNQKDENISSENSEENTSDKTLDNNAGSSEKKDPEHSDDEKSQQGQSDDKTTTEDNNGEEESSKKTVSDSENSAKQSESSDEEKEELRKQEEKQMGPTEEEVQHEGAYNPDTGEINWDCPSLGGMAHGPCGEEFKSAFSCFVYSEAEPKGIDCVEKFQHMQDCFRKYPEHYAEQLKETSDDEEPQDKVKVNTIESAPNVSSAKENAAKKAEQSDVKKEPLNEESKP [C298S], the “effect of a mutation on the interaction” value is reported as “decreasing interaction”.
